Measured values published in patent US20230295324A1.

Key:
[1] = molecular target: human OX40 on cells (CHO-K1/hu OX40) (human) (UniProt P43489); experiment: FACS, CHO-K1/hu OX40 cells
[2] = molecular target: human OX40 on cells (CHO-K1/hu OX40) (human) (UniProt P43489); experiment: cell-based or functional assay

human OX40 on cells (CHO-K1/hu OX40) (human), sequence (P43489 29-277): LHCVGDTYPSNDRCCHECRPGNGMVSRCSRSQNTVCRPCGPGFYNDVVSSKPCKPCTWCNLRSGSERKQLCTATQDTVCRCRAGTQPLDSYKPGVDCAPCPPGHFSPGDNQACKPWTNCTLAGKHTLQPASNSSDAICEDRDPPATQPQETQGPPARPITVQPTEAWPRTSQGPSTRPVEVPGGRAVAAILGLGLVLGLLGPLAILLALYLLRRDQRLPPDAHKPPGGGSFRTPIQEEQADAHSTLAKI

EC50 [1]: 71 nM | Maximum MFI [1]: 6900 MFI | Maximum fluorescence signal value, HEK293/OX40/NF-kb luciferase reporter [2]: 2530 luminescence
Substance: hIgG1 (antibody)
